Test results as given in the supplement of paper PMC10567573.

B1: DCAF4 (parent)
chain: DSHILLCLMGLAETPGCATLLPAS
B2: WEE1 (parent)
chain: FLGSSFSPVRCGGPGDASPRGCGA

Variants of: B1
Experiment: protein stability index of a GFP-peptide fusion (GPS, HEK-293T) (PSI 1-6); higher = more stable
Settings: c terminus: a fixed tail appended
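Note: lentivirally expressed fusions sorted by FACS into six bins by GFP to DsRed ratio, PSI derived from sequencing read proportions per bin multiplied by bin number.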

Variant | protein stability index
DSHILLCLMGLAETPGCATLLPAP [S24P] | 2.36
DSHILLCLMGLAETPGCATLLPAA [S24A] | 1.39
DSHILLCLMGLAETPGCATLLPAE [S24E] | 1.74
DSHILLCLMGLAETPGCATLLPAC [S24C] | 4.56
DSHILLCLMGLAETPGCATLLPAD [S24D] | 1.92
DSHILLCLMGLAETPGCATLLPAI [S24I] | 2.82
DSHILLCLMGLAETPGCATLLPAY [S24Y] | 2.91
DSHILLCLMGLAETPGCATLLPAW [S24W] | 2.76
DSHILLCLMGLAETPGCATLLPAR [S24R] | 2.1
DSHILLCLMGLAETPGCATLLPAN [S24N] | 2.69
DSHILLCLMGLAETPGCATLLPAT [S24T] | 3.75
DSHILLCLMGLAETPGCATLLPCS [A23C] | 1.89
DSHILLCLMGLAETPGCATLLPYS [A23Y] | 1.75
DSHILLCLMGLAETPGCATLLPVS [A23V] | 1.49
DSHILLCLMGLAETPGCATLLPES [A23E] | 3.69
DSHILLCLMGLAETPGCATLLPQS [A23Q] | 2.72
DSHILLCLMGLAETPGCATLLPRS [A23R] | 3.3
DSHILLCLMGLAETPGCATLLPNS [A23N] | 3.13
DSHILLCLMGLAETPGCATLLPTS [A23T] | 2.42
DSHILLCLMGLAETPGCATLLPHS [A23H] | 1.66

Variant | protein stability index
DSHILLCLMGLAETPGCATLLPMS [A23M] | 1.66
DSHILLCLMGLAETPGCATLLPLS [A23L] | 1.69
DSHILLCLMGLAETPGCATLLPDS [A23D] | 2.79
DSHILLCLMGLAETPGCATLLPIS [A23I] | 3.11
DSHILLCLMGLAETPGCATLLPGS [A23G] | 2.37
DSHILLCLMGLAETPGCATLLPFS [A23F] | 3.27
DSHILLCLMGLAETPGCATLLPPS [A23P] | 1.79
DSHILLCLMGLAETPGCATNLPAS [L20N] | 2.9
DSHILLCLMGLAETPGCATSLPAS [L20S] | 2.54
DSHILLCLMGLAETPGCATMLPAS [L20M] | 2.52
DSHILLCLMGLAETPGCATRLPAS [L20R] | 2.34
DSHILLCLMGLAETPGCATVLPAS [L20V] | 2.36
DSHILLCLMGLAETPGCATPLPAS [L20P] | 2
DSHILLCLMGLAETPGCATTLPAS [L20T] | 2.07
DSHILLCLMGLAETPGCATHLPAS [L20H] | 2.36
DSHILLCLMGLAETPGCATYLPAS [L20Y] | 3.25
DSHILLCLMGLAETPGCATKLPAS [L20K] | 2.4
DSHILLCLMGLAETPGCATQLPAS [L20Q] | 1.93
DSHILLCLMGLAETPGCATFLPAS [L20F] | 3.14
DSHILLCLMGLAETPGCATELPAS [L20E] | 1.9

Variant | protein stability index
DSHILLCLMGLAETPGCATGLPAS [L20G] | 2.44
DSHILLCLMGLAETPGCATILPAS [L20I] | 2.38
DSHILLCLMGLAETPGCATLHPAS [L21H] | 4.41
DSHILLCLMGLAETPGCATLDPAS [L21D] | 1.71
DSHILLCLMGLAETPGCATLSPAS [L21S] | 1.65
DSHILLCLMGLAETPGCATLTPAS [L21T] | 2.04
DSHILLCLMGLAETPGCATLAPAS [L21A] | 3.11
DSHILLCLMGLAETPGCATLVPAS [L21V] | 2.17
DSHILLCLMGLAETPGCATLGPAS [L21G] | 2.21
DSHILLCLMGLAETPGCATLFPAS [L21F] | 3.52
DSHILLCLMGLAETPGCATLNPAS [L21N] | 3.01
DSHILLCLMGLAETPGCATLEPAS [L21E] | 1.72
DSHILLCLMGLAETPGCATLWPAS [L21W] | 2.8
DSHILLCLMGLAETPGCATLPPAS [L21P] | 2.25
DSHILLCLMGLAETPGCATLLAAS [P22A] | 3.01
DSHILLCLMGLAETPGCATLLHAS [P22H] | 3.65
DSHILLCLMGLAETPGCATLLRAS [P22R] | 3.03
DSHILLCLMGLAETPGCATLLKAS [P22K] | 3.2
DSHILLCLMGLAETPGCATLLGAS [P22G] | 2.29

Variants of: B2
Experiment: as above
Settings: c terminus: a fixed tail appended

Variant | protein stability index
FAGSSFSPVRCGGPGDASPRGCGA [L2A] | 2.06
FRGSSFSPVRCGGPGDASPRGCGA [L2R] | 3.13
FSGSSFSPVRCGGPGDASPRGCGA [L2S] | 3.18
FQGSSFSPVRCGGPGDASPRGCGA [L2Q] | 1.85
FCGSSFSPVRCGGPGDASPRGCGA [L2C] | 1.95
FDGSSFSPVRCGGPGDASPRGCGA [L2D] | 3.37
FWGSSFSPVRCGGPGDASPRGCGA [L2W] | 2.35
FFGSSFSPVRCGGPGDASPRGCGA [L2F] | 2.51
FNGSSFSPVRCGGPGDASPRGCGA [L2N] | 2.45
FEGSSFSPVRCGGPGDASPRGCGA [L2E] | 3.41
FHGSSFSPVRCGGPGDASPRGCGA [L2H] | 2.02
FTGSSFSPVRCGGPGDASPRGCGA [L2T] | 1.6
FYGSSFSPVRCGGPGDASPRGCGA [L2Y] | 2.19
FPGSSFSPVRCGGPGDASPRGCGA [L2P] | 2.04
FMGSSFSPVRCGGPGDASPRGCGA [L2M] | 2.07
FKGSSFSPVRCGGPGDASPRGCGA [L2K] | 3.1
FGGSSFSPVRCGGPGDASPRGCGA [L2G] | 1.93
SLGSSFSPVRCGGPGDASPRGCGA [F1S] | 2.87

Variant | protein stability index
ILGSSFSPVRCGGPGDASPRGCGA [F1I] | 2.72
TLGSSFSPVRCGGPGDASPRGCGA [F1T] | 2.82
YLGSSFSPVRCGGPGDASPRGCGA [F1Y] | 1.87
PLGSSFSPVRCGGPGDASPRGCGA [F1P] | 3.4
HLGSSFSPVRCGGPGDASPRGCGA [F1H] | 3.26
VLGSSFSPVRCGGPGDASPRGCGA [F1V] | 3.77
ALGSSFSPVRCGGPGDASPRGCGA [F1A] | 2.89
WLGSSFSPVRCGGPGDASPRGCGA [F1W] | 2.16
DLGSSFSPVRCGGPGDASPRGCGA [F1D] | 2.95
MLGSSFSPVRCGGPGDASPRGCGA [F1M] | 2.29
CLGSSFSPVRCGGPGDASPRGCGA [F1C] | 2.82
LLGSSFSPVRCGGPGDASPRGCGA [F1L] | 2.56
NLGSSFSPVRCGGPGDASPRGCGA [F1N] | 2.48
QLGSSFSPVRCGGPGDASPRGCGA [F1Q] | 3.36
RLGSSFSPVRCGGPGDASPRGCGA [F1R] | 2.46
KLGSSFSPVRCGGPGDASPRGCGA [F1K] | 2.95
GLGSSFSPVRCGGPGDASPRGCGA [F1G] | 3.25
